Data on three molecules can be found in paper PMC3608507 (Molecular Biology of the Cell, 2013).

Usually Kd stands for the free concentration of one partner at which half of the binding sites on the other are occupied at equilibrium, for simple one-to-one binding. High values mean a looser complex, low ones a tighter complex.

Where two headings read alike, the source gives them in different places.

Holding throughout (assay): ELISA
Background: In an ELISA, binding on a coated surface is turned into a signal by an enzyme label.

Assay [1] deals with T1, His-lasp-2 (full-length) (UniProt Q9DC07 1-270).
T1 sequence: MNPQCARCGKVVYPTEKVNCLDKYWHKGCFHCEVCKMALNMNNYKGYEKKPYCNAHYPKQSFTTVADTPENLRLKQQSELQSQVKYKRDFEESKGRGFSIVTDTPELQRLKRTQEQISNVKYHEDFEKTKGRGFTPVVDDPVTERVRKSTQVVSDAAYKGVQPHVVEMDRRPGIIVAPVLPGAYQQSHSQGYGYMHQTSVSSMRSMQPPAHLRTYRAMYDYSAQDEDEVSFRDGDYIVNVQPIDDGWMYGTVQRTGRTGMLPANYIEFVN

Assay [2] concerns the target His-paxillin (full-length) (UniProt P49023 1-591).
The target of assay [3] is T1, His-lasp-2 (full-length). This is another data set of the same source.

His-paxillin (full-length), sequence (P49023 whole entry): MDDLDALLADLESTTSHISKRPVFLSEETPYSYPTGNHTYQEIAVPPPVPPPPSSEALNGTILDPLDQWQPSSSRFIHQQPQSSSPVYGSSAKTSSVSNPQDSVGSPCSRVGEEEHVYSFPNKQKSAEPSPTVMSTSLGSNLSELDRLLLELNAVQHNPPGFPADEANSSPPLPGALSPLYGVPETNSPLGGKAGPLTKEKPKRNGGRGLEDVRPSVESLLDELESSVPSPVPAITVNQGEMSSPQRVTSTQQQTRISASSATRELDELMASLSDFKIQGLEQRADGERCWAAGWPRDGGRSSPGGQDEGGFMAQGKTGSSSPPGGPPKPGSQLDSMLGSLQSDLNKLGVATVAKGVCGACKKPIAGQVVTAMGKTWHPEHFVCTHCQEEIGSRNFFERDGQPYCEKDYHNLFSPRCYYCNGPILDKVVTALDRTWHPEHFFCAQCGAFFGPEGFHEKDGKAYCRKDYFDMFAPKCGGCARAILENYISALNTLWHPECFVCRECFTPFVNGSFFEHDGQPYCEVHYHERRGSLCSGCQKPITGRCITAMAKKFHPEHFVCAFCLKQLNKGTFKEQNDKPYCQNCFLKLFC

B1: GST-lasp-1 (full-length) (natural protein)
chain: MNPNCARCGKIVYPTEKVNCLDKYWHKACFHCETCKMTLNMKNYKGYEKKPYCNAHYPKQSFTMVADTPENLRLKQQSELQSQVRYKEEFEKNKGKGFSVVADTPELQRIKKTQDQISNIKYHEEFEKSRMGPSGGEGVEPERREAQDSSSYRRPTEQQQPQPHHIPTSAPVYQQPQQQQMTSSYGGYKEPAAPVSIQRSAPGGGGKRYRAVYDYSAADEDEVSFQDGDTIVNVQQIDDGWMYGTVERTGDTGMLPANYVEAI
In the case of B1, the Kd with His-lasp-2 (full-length) [1] was ~15 nM.

B2: GST-lasp-2 (full-length) (natural protein)
chain: MNPQCARCGKVVYPTEKVNCLDKYWHKGCFHCEVCKMALNMNNYKGYEKKPYCNAHYPKQSFTTVADTPENLRLKQQSELQSQVKYKRDFEESKGRGFSIVTDTPELQRLKRTQEQISNVKYHEDFEKTKGRGFTPVVDDPVTERVRKSTQVVSDAAYKGVQPHVVEMDRRPGIIVAPVLPGAYQQSHSQGYGYMHQTSVSSMRSMQPPAHLRTYRAMYDYSAQDEDEVSFRDGDYIVNVQPIDDGWMYGTVQRTGRTGMLPANYIEFVN
B2: the Kd in assay [2] is ~20 nM.

B3: His-vinculin-tail (amino acids 840-1066) (domain or fragment)
chain: PDFPPPPPDLEQLRLTDELAPPKPPLPEGEVPPPRPPPPEEKDEEFPEQKAGEVINQPMMMAARQLHDEARKWSSKGNDIIAAAKRMALLMAEMSRLVRGGSGTKRALIQCAKDIAKASDEVTRLAKEVAKQCTDKRIRTNLLQVCERIPTISTQLKILSTVKATMLGRTNISDEESEQATEMLVHNAQNLMQSVKETVREAEAASIKIRTDAGFTLRWVRKTPWYQ
With B3, the Kd in the assay with His-lasp-2 (full-length) [3] was ~140 nM.
